Molecular target: TMD-mRFP-RelA (UniProt Q04206 1-551)
Test: co-translocation of a three-protein complex (RelA, IkB, p50) after 1 µM PMA, confocal microscopy, HEK293 cells

TMD-mRFP-RelA, sequence (Q04206 other isoform, or with tags, fused parts or gaps limits assumed): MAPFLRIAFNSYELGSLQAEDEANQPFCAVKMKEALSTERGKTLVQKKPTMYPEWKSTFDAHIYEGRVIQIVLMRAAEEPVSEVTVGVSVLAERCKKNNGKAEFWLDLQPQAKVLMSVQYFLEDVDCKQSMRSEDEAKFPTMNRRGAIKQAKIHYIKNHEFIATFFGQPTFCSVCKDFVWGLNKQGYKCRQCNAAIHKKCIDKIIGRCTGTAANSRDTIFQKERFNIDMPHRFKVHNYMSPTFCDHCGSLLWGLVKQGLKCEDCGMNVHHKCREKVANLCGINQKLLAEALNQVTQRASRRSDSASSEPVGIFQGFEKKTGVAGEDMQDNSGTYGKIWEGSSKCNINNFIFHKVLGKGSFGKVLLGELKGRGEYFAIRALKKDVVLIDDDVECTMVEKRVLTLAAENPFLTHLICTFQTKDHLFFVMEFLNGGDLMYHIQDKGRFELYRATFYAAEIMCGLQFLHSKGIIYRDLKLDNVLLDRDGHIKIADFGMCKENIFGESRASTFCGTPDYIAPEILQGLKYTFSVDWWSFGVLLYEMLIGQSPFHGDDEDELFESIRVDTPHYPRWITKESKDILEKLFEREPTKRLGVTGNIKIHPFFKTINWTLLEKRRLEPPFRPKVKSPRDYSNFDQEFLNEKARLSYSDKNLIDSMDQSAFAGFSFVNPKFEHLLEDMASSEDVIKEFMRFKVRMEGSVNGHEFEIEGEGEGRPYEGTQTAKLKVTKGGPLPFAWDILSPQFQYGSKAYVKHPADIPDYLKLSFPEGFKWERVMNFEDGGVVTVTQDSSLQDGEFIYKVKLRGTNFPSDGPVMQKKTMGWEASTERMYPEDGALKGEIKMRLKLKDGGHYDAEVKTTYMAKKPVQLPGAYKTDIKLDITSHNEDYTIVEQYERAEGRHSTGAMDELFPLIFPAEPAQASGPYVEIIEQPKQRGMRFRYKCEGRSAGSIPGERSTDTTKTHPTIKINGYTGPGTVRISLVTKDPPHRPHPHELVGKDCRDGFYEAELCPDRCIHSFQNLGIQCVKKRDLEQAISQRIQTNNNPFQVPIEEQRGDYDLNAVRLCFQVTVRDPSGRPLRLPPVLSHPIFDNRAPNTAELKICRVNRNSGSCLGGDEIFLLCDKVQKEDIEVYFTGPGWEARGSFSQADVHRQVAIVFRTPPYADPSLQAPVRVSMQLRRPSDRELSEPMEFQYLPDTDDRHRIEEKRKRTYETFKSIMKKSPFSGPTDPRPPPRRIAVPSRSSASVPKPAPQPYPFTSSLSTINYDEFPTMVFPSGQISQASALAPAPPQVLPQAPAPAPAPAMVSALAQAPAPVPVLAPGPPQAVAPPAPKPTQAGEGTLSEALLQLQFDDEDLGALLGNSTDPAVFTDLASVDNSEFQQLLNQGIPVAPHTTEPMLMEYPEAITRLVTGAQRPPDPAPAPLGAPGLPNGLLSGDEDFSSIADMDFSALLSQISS

binding result: binds
B1: HcR-p50 (other)
chain: MVSGLLKESMRIKMYMEGTVNGHYFKCEGEGDGNPFAGTQSMRIHVTEGAPLPFAFDILAPCCEYGSRTFVHHTAEIPDFFKQSFPEGFTWERTTTYEDGGILTAHQDTSLEGNCLIYKVKVHGTNFPADGPVMKNKSGGWEPSTEVVYPENGVLCGRNVMALKVGDRHLICHHYTSYRSKKAVRALTMPGFHFTDIRLQMLRKKKDEYFELYEASVARYSDLPEKANMAEDDPYLGRPEQMFHLDPSLTHTIFNPEVFQPQMALPTDGPYLQILEQPKQRGFRFRYVCEGPSHGGLPGASSEKNKKSYPQVKICNYVGPAKVIVQLVTNGKNIHLHAHSLVGKHCEDGICTVTAGPKDMVVGFANLGILHVTKKKVFETLEARMTEACIRGYNPGLLVHPDLAYLQAEGGGDRQLGDREKELIRQAALQQTKEMDLSVVRLMFTAFLPDSTGSFTRRLEPVVSDAIYDSKAPNASNLKIVRMDRTAGCVTGGEEIYLLCDKVQKDDIQIRFYEEEENGGVWEGFGDFSPTDVHRQFAIVFKTPKYKDINITKPASVFVQLRRKSDLETSEPKPFLYYPEIKDKEEVQRKRQKLMPNFSDSFGGGSGAGAGGGGMFGSGGGGGGTGSTGPGYSFPHYGFPTYGGITFHPGTTKSNAGMKHG
notes: also called second construct 2
